# Data taken from patent US20020164716A1 (GENETICS INSTITUTE, published 2002).
# T1: TNF-R1-DD ligand protein encoded by clone 3DD (Homo sapiens (Human), UniProt Q9H3U1 807-944)
# T1 construct: partial clone
# T1 sequence: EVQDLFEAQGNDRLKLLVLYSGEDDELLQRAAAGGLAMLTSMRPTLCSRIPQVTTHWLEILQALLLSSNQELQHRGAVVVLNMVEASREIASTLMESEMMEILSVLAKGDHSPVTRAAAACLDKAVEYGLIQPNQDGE
# T2: TNF-R1-DD ligand protein encoded by clone 1TU (Homo sapiens (Human), UniProt Q8TEL6 488-797)
# T2 construct: partial clone
# T2 sequence: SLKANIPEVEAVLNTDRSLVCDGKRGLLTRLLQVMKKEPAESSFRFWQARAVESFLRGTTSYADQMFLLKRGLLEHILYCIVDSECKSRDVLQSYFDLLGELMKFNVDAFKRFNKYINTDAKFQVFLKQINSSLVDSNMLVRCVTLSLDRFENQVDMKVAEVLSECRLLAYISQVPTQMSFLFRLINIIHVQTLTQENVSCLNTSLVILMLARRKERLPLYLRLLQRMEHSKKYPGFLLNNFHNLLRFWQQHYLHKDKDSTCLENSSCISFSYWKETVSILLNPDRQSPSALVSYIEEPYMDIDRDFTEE
# B1: LexA-TNF-R1-DD fusion protein (death domain of the P55 type 1 TNF receptor) (receptor, UniProt P19438 355-442, looked up)
# chain: DPATLYAVVENVPPLRWKEFVRRLGLSDHEIDRLELQNGRCLREAQYSMLATWRRRTPRREATLELLGRVLRDMDLLGCLEDIEEALC
# notes: range 326-413; also called TNF-RDD; TNF-R death domain; not shown: LexA, bait fusion partner from plasmid pEG202
# Tests used:
# [1] = target: T3, protein encoded by clone 15TU (Homo sapiens (Human), UniProt Q8WXG6 1329-1647); test: yeast interaction trap, panel of baits
# T3 construct: The limits 289-607 are printed as approximate
# T3 sequence (Q8WXG6 1329-1647): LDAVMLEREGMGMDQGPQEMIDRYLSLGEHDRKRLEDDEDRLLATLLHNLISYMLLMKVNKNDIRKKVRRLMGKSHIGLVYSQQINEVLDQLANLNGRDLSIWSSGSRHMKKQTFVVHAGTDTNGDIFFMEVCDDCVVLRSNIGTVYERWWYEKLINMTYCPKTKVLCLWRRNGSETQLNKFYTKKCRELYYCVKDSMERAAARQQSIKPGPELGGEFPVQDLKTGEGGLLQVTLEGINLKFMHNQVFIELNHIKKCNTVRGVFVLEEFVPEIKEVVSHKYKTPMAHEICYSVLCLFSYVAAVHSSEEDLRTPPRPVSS
# Text: (§1) The ability of these clones to bind the TNF-R death domain was compared to their binding to the intracellular domain of the second TNF-R (TNF-R p75IC), the entire intracellular domain of TNF-R (TNF-R p55IC), the death domain of the fas antigen (which shares 28% identity with TNF-R-DD) (FasDD), the Drosophila transcription factor bicoid, and a region of the IL-1 receptor known to be critical for signalling (IL-1R₄₇₇₋₅₂₇).
# [2] = target: T4, TNF-R1-DD ligand protein encoded by clone 27TU (Homo sapiens (Human), UniProt Q8WXG6 1002-1647); test: yeast interaction trap, panel of baits
# T4 construct: partial clone
# T4 sequence (Q8WXG6 other isoform, or with tags, fused parts or gaps): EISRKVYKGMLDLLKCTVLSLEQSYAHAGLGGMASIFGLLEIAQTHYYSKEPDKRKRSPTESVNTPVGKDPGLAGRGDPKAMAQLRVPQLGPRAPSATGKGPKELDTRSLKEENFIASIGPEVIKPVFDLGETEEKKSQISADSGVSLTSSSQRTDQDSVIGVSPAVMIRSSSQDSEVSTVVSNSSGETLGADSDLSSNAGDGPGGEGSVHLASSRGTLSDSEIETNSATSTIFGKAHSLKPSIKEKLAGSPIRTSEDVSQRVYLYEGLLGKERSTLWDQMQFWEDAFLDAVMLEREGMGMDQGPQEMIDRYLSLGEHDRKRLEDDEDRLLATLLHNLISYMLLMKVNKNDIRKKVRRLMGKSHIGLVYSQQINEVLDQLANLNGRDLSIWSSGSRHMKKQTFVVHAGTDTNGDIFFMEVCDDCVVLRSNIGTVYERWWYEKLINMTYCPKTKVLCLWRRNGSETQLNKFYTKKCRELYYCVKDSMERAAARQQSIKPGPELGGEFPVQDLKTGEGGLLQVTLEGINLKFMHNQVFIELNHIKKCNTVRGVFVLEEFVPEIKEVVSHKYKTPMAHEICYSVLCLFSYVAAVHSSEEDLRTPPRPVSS
# Text: as §1
# [3] = target: T5, TNF-R1-DD ligand protein encoded by clone 2DD (Homo sapiens (Human), UniProt Q8WXG6 1217-1647); test: yeast interaction trap, panel of baits
# T5 construct: partial clone of a longer protein
# T5 sequence (Q8WXG6 other isoform, or with tags, fused parts or gaps): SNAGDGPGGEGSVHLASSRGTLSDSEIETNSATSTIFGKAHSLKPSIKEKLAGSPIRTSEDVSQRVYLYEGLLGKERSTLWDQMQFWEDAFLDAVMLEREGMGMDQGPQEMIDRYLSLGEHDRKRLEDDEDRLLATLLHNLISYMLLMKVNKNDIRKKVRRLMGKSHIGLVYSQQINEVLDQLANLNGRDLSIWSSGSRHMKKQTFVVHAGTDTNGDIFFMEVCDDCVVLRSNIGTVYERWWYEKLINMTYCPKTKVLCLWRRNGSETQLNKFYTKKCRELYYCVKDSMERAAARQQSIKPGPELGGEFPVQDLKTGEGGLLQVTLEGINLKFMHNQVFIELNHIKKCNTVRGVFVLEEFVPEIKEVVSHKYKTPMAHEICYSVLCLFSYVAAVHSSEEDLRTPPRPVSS
# Text: (§2) A yeast genetic selection method, the “interaction trap” [Gyuris et al, Cell 75:791-803, 1993, which is incorporated herein by reference], was used to screen WI38 cell cDNA libraries (preparation, see below) for proteins that interact with the death domain of the P55 type 1 TNF receptor (TNF-R1-DD). A polynucleotide encoding amino acids 326 to 413 of the P55 type TNF receptor, TNF-R1-DD, was obtained via the polymerase chain reaction (PCR) using a grafting method. This TNF-R1-DD DNA was then cloned into pEG202 by BamHI and SalI sites, generating the bait plasmid, pEG202-TNF-R1-DD. This plasmid contains the HIS3 selectable marker, and expression of the bait, the LexA-TNF-R1-DD fusion protein, is from the strong constitutive ADH1 promoter. To create the reporter strain carrying the bait protein, yeast strain EGY48, containing the reporter sequence LexAop-Leu2 in place of the chromosomal LEU2, was transformed with pEG202-TNF-R1-DD and pSH18-34 (Ura+), which carries another reporter sequence, LexAop-lacZ. For screening cDNAs encoding proteins that interact with TNF-R1-DD, the expression vector pJG4-5 (TRP1), containing the WI38 cell cDNA library (see below for the cDNA library construction), was transformed into the above strain (EGY48/pEG202-TNF-R1-DD/pSH18-34) according to the method described by Gietz et al., Nucleic Acids Res., 20:1425 (1992).
# (§3) The clones “2DD,” “3DD” and “20DD” were chosen for further analysis. Library vector pJG4-5 containing these clones sequences were rescued from yeast by transforming the total yeast DNAs into the E. coli strain KC8 and selecting for growth on Trp-ampicillin plates.
# [4] = target: T1, TNF-R1-DD ligand protein encoded by …; test: yeast interaction trap, panel of baits
# Text: as §2, §3
# [5] = target: T2, TNF-R1-DD ligand protein encoded by …; test: yeast interaction trap, wild type against death domain mutants
# [6] = target: T3, protein encoded by clone 15TU; test: as above
# [7] = target: MBP protein (UniProt P0AEX9 27-392 = MBP); test: pull-down on glutathione beads, Western blot with anti-MBP antibody
# Protocol: The reaction ws performed at 4° C. for 2 hours and centrifuged to remove unbound fraction (Unbound). The beads were then washed with 500 μl binding buffer four times and resuspended into SDS-sample buffer (Bound).
# [8] = target: T2, TNF-R1-DD ligand protein encoded by …; test: yeast interaction trap, death domain mutants
# Protocol: (§4) The ability of each clone to interact with four single-site mutations in the TNF-R death domain (each known to abolish signalling) was measured.
# [9] = target: T3, protein encoded by clone 15TU; test: yeast interaction trap, death domain mutants
# Protocol: as §4
# [10] = target: T4, TNF-R1-DD ligand protein encoded by …; test: yeast interaction trap, death domain mutants
# Protocol: as §4
# [11] = target: T2, TNF-R1-DD ligand protein encoded by …; test: yeast interaction trap, panel of baits
# Text: as §1
# [12] = target: B1; test: yeast interaction trap, panel of baits
# Text: as §2, §3
binder,measurement,setting,value
"Drosophila transcription factor bicoid (other, UniProt P09081-2 2-160, looked up) AQPPPDQNFYHHPLPHTHTHPHPHSHPHPHSHPHPHHQHPQLQLPPQFRNPFDLLFDERTGAINYNYIRPYLPNQMPKPEELPDSLVMRRPRRTRTTFTSSQIAELEQHFLQGRYLTAPRLADLSAKLALGTAQVKIWFKNRRRRHKIQSDQHKDQSYE",binding result,[1],no binding
same,binding result,[2],no binding
B1,binding result,[3],binds
same,binding result,[4],binds
same,binding result,[2],binds
same,binding result,[5],binds
same,binding result,[6],binds
"TNF-R1-DD expressed as a GST fusion protein (receptor, range 326-413; Purified, bacterially expressed, held on glutathione beads; Numbering: see the note of m7; also called GST-TNF-R1-DD; GST/TNF-R1-DD; not shown: glutathione-S-transferase (GST) from a pGEX vector (Pharmacia)) DPATLYAVVENVPPLRWKEFVRRLGLSDHEIDRLELQNGRCLREAQYSMLATWRRRTPRREATLELLGRVLRDMDLLGCLEDIEEALC",binding result,[7],no binding (tested: 3 µg)
"TNF-R death domain mutant L351A (receptor, UniProt P19438 355-442, looked up, range 326-413; Numbering as printed, see the note of m7; not shown: LexA, bait fusion partner from plasmid pEG202) DPATLYAVVENVPPLRWKEFVRRLGASDHEIDRLELQNGRCLREAQYSMLATWRRRTPRREATLELLGRVLRDMDLLGCLEDIEEALC",binding result,[8],binds
same,binding result,[9],binds
same,binding result,[10],binds
"TNF-R death domain mutant F345A (receptor, UniProt P19438 355-442, looked up, range 326-413; Numbering as printed, see the note of m7; not shown: LexA, bait fusion partner from plasmid pEG202) DPATLYAVVENVPPLRWKEAVRRLGLSDHEIDRLELQNGRCLREAQYSMLATWRRRTPRREATLELLGRVLRDMDLLGCLEDIEEALC",binding result,[8],binds
same,binding result,[9],binds
same,binding result,[10],binds
"TNF-R death domain mutant I408A (receptor, UniProt P19438 355-442, looked up, range 326-413; Numbering as printed, see the note of m7; not shown: LexA, bait fusion partner from plasmid pEG202) DPATLYAVVENVPPLRWKEFVRRLGLSDHEIDRLELQNGRCLREAQYSMLATWRRRTPRREATLELLGRVLRDMDLLGCLEDAEEALC",binding result,[8],binds
same,binding result,[9],binds
same,binding result,[10],binds
"TNF-R death domain mutant W378A (receptor, UniProt P19438 355-442, looked up, range 326-413; Numbering as printed, see the note of m7; not shown: LexA, bait fusion partner from plasmid pEG202) DPATLYAVVENVPPLRWKEFVRRLGLSDHEIDRLELQNGRCLREAQYSMLATARRRTPRREATLELLGRVLRDMDLLGCLEDIEEALC",binding result,[8],binds
same,binding result,[9],binds
same,binding result,[10],binds
"intracellular domain of the second TNF-R (TNF-R p75IC) (receptor, UniProt P20333 288-461, looked up, domain: intracellular domain; also called TNF-R p75JC) KKKPLCLQREAKVPHLPADKARGTQGPEQQHLLITAPSSSSSSLESSASALDRRAPTRNQPQAPGVEASGAGEARASTGSSDSSPGGHGTQVNVTCIVNVCSSSDHSSQCSSQASSTMGDTDSSPSESPKDEQVPFSKEECAFRSQLETPETLLGSTEEKPLPLGVPDAGMKPS",binding result,[11],no binding
same,binding result,[2],no binding
"death domain of the fas antigen (FasDD) (receptor, UniProt P25445 230-314, looked up, domain: death domain) SKYITTIAGVMTLSQVKGFVRKNGVNEAKIDEIKNDNVQDTAEQKVQLLRNWHQLHGKKEAYDTLIKDLKKANLCTLAEKIQTII",binding result,[11],no binding
same,binding result,[1],no binding
same,binding result,[2],no binding
"entire intracellular domain of TNF-R (TNF-R p55IC) (receptor, UniProt P19438 233-455, looked up, domain: entire intracellular domain; also called TNF-R p55JC; cytoplasmic domain of the p55 TNF-R) MYRYQRWKSKLYSIVCGKSTPEKEGELEGTTTKPLAPNPSFSPTPGFTPTLGFSPVPSSTFTSSSTYTPGDCPNFAAPRREVAPPYQGADPILATALASDPIPNPLQKWEDSAHKPQSLDTDDPATLYAVVENVPPLRWKEFVRRLGLSDHEIDRLELQNGRCLREAQYSMLATWRRRTPRREATLELLGRVLRDMDLLGCLEDIEEALCGPAALPPAPSLLR",binding result,[11],binds
same,binding result,[1],binds
same,binding result,[2],binds
"TNF-R1-DD ligand protein encoded by clone 20DD (ligand, not shown: large carriers) EKPLHALLHGRGVCLNEKSYREQVKIERDSREHEEPTTSEMAEETYSPKIFRPKHTRISELKAEAVKKDRRKKLTQSKFVGGAENTAHPRIISEPEMRQESEQGPCRRHMEASLQELKASPRMVPRAVYLPNCDRKGFYKRKQCKPSRGRKRGICWCVDKYGMKLPGMEYVDGDFQCHTFDSSNVE",binding result,[12],binds
